Laboratory results reported in patent publication EP4582447A1 (Quaerite Biopharm Research (Beijing) Co., Ltd., dated 2025).
Like-named read-outs stand apart in the source and are kept apart here.

What was measured:
[1] = molecular target: T1, Human VEGFA165 (human, UniProt P15692-4 27-191); experiment: competition ELISA on coated VEGFA, competitor VEGFR2-ECD-Fc 2 nM
T1 construct: treated as the same molecule; also called antigen VEGFA

[2] = molecular target: T1, Human VEGFA165; experiment: ELISA, VEGFA coated 0.3 µg/mL, anti-His detection
[3] = molecular target: 3% milk powder (negative control); experiment: phage ELISA, 3% milk powder coated (negative control), anti-M13(HRP)
[4] = molecular target: T1, Human VEGFA165; experiment: phage ELISA, VEGFA coated 0.5 µg/mL, anti-M13(HRP)
[5] = molecular target: T1, Human VEGFA165; experiment: SPR Biacore 8K, VEGFA165 amine-coupled on CM5, nanobody as analyte, 1:1 model
[6] = molecular target: T1, Human VEGFA165; experiment: SPR, VEGFA165 on CM5
[7] = molecular target: T1, Human VEGFA165; experiment: cell-based or functional assay
[8] = molecular target: T1, Human VEGFA165; experiment: competition ELISA on coated VEGFA, competitor VEGFR2-ECD-Fc 1 nM
[9] = molecular target: T1, Human VEGFA165; experiment: as above; remark: listed apart in the source
[10] = molecular target: T1, Human VEGFA165; experiment: ELISA, VEGFA coated 0.3 µg/mL, anti-His detection; remark: listed apart in the source
[11] = molecular target: T1, Human VEGFA165; experiment: phage ELISA, VEGFA coated 0.5 µg/mL, anti-M13(HRP); remark: listed apart in the source
[12] = molecular target: T1, Human VEGFA165; experiment: phage ELISA, VEGFA coated 0.5 µg/mL, anti-M13(HRP)

T1 sequence (P15692 other isoform, or with tags, fused parts or gaps limits assumed): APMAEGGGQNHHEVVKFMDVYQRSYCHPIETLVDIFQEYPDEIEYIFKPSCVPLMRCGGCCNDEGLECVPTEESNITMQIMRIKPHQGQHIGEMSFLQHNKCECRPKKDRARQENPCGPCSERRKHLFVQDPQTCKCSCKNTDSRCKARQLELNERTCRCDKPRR

B1: V15-2m (VHH)
VHH: EVQLVESGGGLVQPGGSLRLSCAASGRTFASYTMGWFRQAPGKEREFVVAISKGGYKYDSVSLEARFTISRDNSKNTVYLQMNSLRPEDTAVYYCAGTRAYGSSRLRLAETYEYWGQGTLVTVSS
notes: Humanized V15
IC50 [1]: 31.7 nM | Maximum inhibition rate (%) [1]: 84.8% | EC50 [2]: 2.04 nM

B2: V40-3H-4m (VHH)
VHH: EVQLVESGGGLVQPGGSLRLSCAASGRTFSSYTMGWFRQAPGKEREFVVAISKGGYKYNAVSLEARFTISRDNAKNTVYLQMNSLRPEDTAVYYCASTRAYGSSRLRLAKTYEYWGQGTLVTVSS
notes: Humanized V40
EC50 [2]: 2.05 nM

B3: V30 (VHH)
VHH: QLQLVESGGGSVQPGGSLRLSCEVSGRTFSSYTMGWFRQAPGKGREFVVAISKGGYKYDAVSLEARFTISKDNTKNTVYLQMNSLKPEDTAVYYCAATRAYGSSRLRLAKTYEYWGQGTQVTVSS
notes: Purified with C-terminal GGGGS-6×His; also called candidate antibody V30
OD450 [3]: 0.0436 OD450 | OD450 [4]: 2.68 OD450 | Kd [5]: 0.214 nM | koff [5]: 0.000136 s⁻¹ | kon [5]: 635000 M⁻¹ s⁻¹ | fold difference of KD from the positive control BI-VEGF ab [6]: < 3 fold | IC50 (pM), inhibition of VEGFA-stimulated HUVEC proliferation (CCK-8) [7]: 1270 pM | Maximum inhibition rate (%) of HUVEC proliferation [7]: 87.4% | IC50 [8]: 5.72 nM | Maximum inhibition rate (%) [8]: 94.8% | IC50 [9]: 3.54 nM | Maximum inhibition rate (%) [9]: 96.5% | EC50 [10]: 0.6 nM

B4: V40-4H-4m (VHH)
VHH: EVQLVESGGGLVQPGGSLRLSCAASGRTFTSYTMGWFRQAPGKEREFVVAISKGGYKYNAVSLEARFTISRDNAKNTVYLQMNSLRPEDTAVYYCASTRAYGSSRLRLAKTYEYWGQGTLVTVSS
notes: Humanized V40
EC50 [2]: 2.34 nM

B5: V30-3H-2m (VHH)
VHH: EVQLVESGGGLVQPGGSLRLSCAASGRTFSSYTMGWFRQAPGKGREFVVAISKGGYKYDAVSLEARFTISRDNSKNTVYLQMNSLRPEDTAVYYCAATRAYGSSRLRLAKTYEYWGQGTLVTVSS
notes: Humanized V30
EC50 [2]: 1.38 nM

B6: V43 (VHH)
VHH: QLQLVESGGGSVQPGGSLRLSCEVSGRTFTSYTMGWFRQAPGKEREFVVAISKGGYKYDSVSLEARFTISKDNTKNTVYLQMNSLKPEDTAVYYCAGTRAYGSSRLRLANTYEYWGQGTQVTVSS
notes: Purified with C-terminal GGGGS-6×His
OD450 [3]: 0.0519 OD450 | OD450 [4]: 2.5 OD450 | Kd [5]: 0.193 nM | koff [5]: 8.09e-05 s⁻¹ | kon [5]: 418000 M⁻¹ s⁻¹ | fold difference of KD from the positive control BI-VEGF ab [6]: < 3 fold | IC50 [9]: 6 nM | Maximum inhibition rate (%) [9]: 93.7% | EC50 [10]: 0.53 nM

B7: V40-4H-2m (VHH)
VHH: EVQLVESGGGLVQPGGSLRLSCAASGRTFTSYTMGWFRQAPGKEREFVVAISKGGYKYNAVSLEARFTISRDNSKNTVYLQMNSLRPEDTAVYYCAATRAYGSSRLRLAKTYEYWGQGTLVTVSS
notes: Humanized V40
EC50 [2]: 2.82 nM

B8: V40-3H-2m (VHH)
VHH: EVQLVESGGGLVQPGGSLRLSCAASGRTFSSYTMGWFRQAPGKEREFVVAISKGGYKYNAVSLEARFTISRDNSKNTVYLQMNSLRPEDTAVYYCAATRAYGSSRLRLAKTYEYWGQGTLVTVSS
notes: Humanized V40
EC50 [2]: 1.64 nM

B9: V15-4m (VHH)
VHH: EVQLVESGGGLVQPGGSLRLSCAASGRTFASYTMGWFRQAPGKEREFVVAISKGGYKYDSVSLEARFTISRDNAKNTVYLQMNSLRPEDTAVYYCAGTRAYGSSRLRLAETYEYWGQGTLVTVSS
notes: Humanized V15
IC50 [1]: 26 nM | Maximum inhibition rate (%) [1]: 87.2% | EC50 [2]: 1.42 nM

B10: V17 (VHH)
VHH: QLQLVESGGGSVQPGGSLRLSCEVSGRTFSSYTMGWFRQAPGKEREFVVAISKGGYKYDTVSLEARFTISKDNTKNTVYLQMNSLKPEDTAVYYCAATRAYGSSRLRLAKTYEYWGQGTQVTVSS
notes: as for B6
OD450 [3]: 0.0403 OD450 | OD450 [11]: 3.47 OD450 | IC50 [9]: 16.3 nM | Maximum inhibition rate (%) [9]: 80.4%

B11: V31 (VHH)
VHH: QLQLVESGGGSVQPGGSLRLSCEVSGRTFASYTMGWFRQAPGKEREFVVAISKGGYKYDAVSLEARFTISKDNTKNTVYLQMNSLKPEDTAVYYCAGTRAYGSSRLRLAKTYEYWGQGTQVTVSS
notes: as for B6
OD450 [3]: 0.0363 OD450 | OD450 [4]: 2.67 OD450 | Kd [5]: 0.62 nM | koff [5]: 0.000172 s⁻¹ | kon [5]: 277000 M⁻¹ s⁻¹ | fold difference of KD from the positive control BI-VEGF ab [6]: < 3 fold | IC50 [9]: 2.07 nM | Maximum inhibition rate (%) [9]: 97.5% | EC50 [10]: 0.67 nM

B12: V22 (VHH)
VHH: QLQLVESGGGSVQPGGSLRLSCEVSGRTFSSYTMGWFRQAPGKEREFVVAISKGGYKYDSVSLEARFTISKDNTKNTVYLQMNSLKPEDTAVYYCAATRAYGSSRLKLADTYEYWGQGTQVTVSS
OD450 [3]: 0.0353 OD450 | OD450 [12]: 1.64 OD450

B13: V21 (VHH)
VHH: QLQLVESGGGSVQPGGSLRLSCEVSGRTFTSYTMGWFRQAPGKEREFVVAISKGGYKYNTVSLEARFTISKDNTKNTVYLQMNSLKPEDTAVYYCAGTRAYGSSRLRLAETYEYWGQGTQVTVSS
notes: as for B6
OD450 [3]: 0.0186 OD450 | OD450 [11]: 2.15 OD450 | IC50 [9]: 4.62 nM | Maximum inhibition rate (%) [9]: 88.3%

B14: V14 (VHH)
VHH: QLQLVESGGGSVQPGGSLRLSCEVSGRTFTSYTMGWFRQAPGKEREFVVAISKGGYKYNTVSLEARFTISKDNTKNTVYLQMNSLKPEDTAVYYCAGTRAYGSSRLRLANTYEYWGQGTQVTVSS
notes: as for B6
OD450 [3]: 0.0252 OD450 | OD450 [11]: 2.03 OD450 | IC50 [9]: 4.58 nM | Maximum inhibition rate (%) [9]: 94.9%

B15: V6 (VHH)
VHH: QLQLVESGGGSVQPGGSLRLSCEVSGRTFSSYTMGWFRQAPGKEREFVVAISKGGYKYDTVSLEARFTISKDNTKNTVYLQMNSLKPEDTAVYYCAGTRAYGSSRLKLADTYEYWGQGTQVTVSS
OD450 [3]: 0.0473 OD450 | OD450 [12]: 1.36 OD450

B16: V18 (VHH)
VHH: QLQLVESGGGSVQPGGSLRLSCEVSGRTFSSYTMGWFRQAPGKEREFVVAISKGGYKYNSVSLEARFTISKDNTKNTVYLQMNSLKPEDTAVYYCAGTRAYGSSRLRLADTYEYWGQGTQVTVSS
OD450 [3]: 0.0134 OD450 | OD450 [12]: 2.94 OD450

B17: V8 (VHH)
VHH: QLQLVESGGGSVQPGGSLRLSCEVSGRTFSSYTMGWFRQAPGKEREFVVAISKGGYKYNTVSLEARFTISKDNTKNTVYLQMNSLKPEDTAVYYCAGTRAYGSSRLKLAETYEYWGQGTQVTVSS
OD450 [3]: 0.0236 OD450 | OD450 [12]: 0.924 OD450

B18: V25 (VHH)
VHH: QLQLVESGGGSVQPGGSLRLSCEVSGRTFTSYTMGWFRRAPGKEREFVVAISKGGYKYDSVSLEARFTISKDNTKNTVYLQMNSLKPEDTAVYYCAGTRAYGSSRLKLAKTYEYWGQGTQVTVSS
OD450 [3]: 0.0354 OD450 | OD450 [12]: 1.29 OD450

B19: V19 (VHH)
VHH: QLQLVESGGGSVQPGGSLRLSCEVSGRTFSSYTMGWFRQAPGKEREFVVAISKGGYKYNSVSLEARFTISKDNTKNTVYLQMNSLKPEDTAVYYCAATRAYGSSRLKLANTYEYWGQGTQVTVSS
OD450 [3]: 0.0273 OD450 | OD450 [12]: 2.47 OD450

B20: V40 (VHH)
VHH: QLQLVESGGGSVQPGGSLRLSCEVSGRTFTSYTMGWFRQAPGKEREFVVAISKGGYKYNAVSLEARFTISKDNTKNTVYLQMNSLKPEDTAVYYCAGTRAYGSSRLRLAKTYEYWGQGTQVTVSS
notes: as for B6
OD450 [3]: 0.0362 OD450 | OD450 [4]: 3.11 OD450 | Kd [5]: 0.305 nM | koff [5]: 0.000108 s⁻¹ | kon [5]: 353000 M⁻¹ s⁻¹ | fold difference of KD from the positive control BI-VEGF ab [6]: < 3 fold | EC50 [2]: 2.03 nM | IC50 [9]: 7.48 nM | Maximum inhibition rate (%) [9]: 92.2% | EC50 [10]: 0.84 nM
